Literature values as cited in patent publication US20160282364A1, “ASSAY FOR INSULIN-DEGRADING ENZYME (IDE) INHIBITORS” (PRESIDENT AND FELLOWS OF HARVARD COLLEGE, priority 2013, published 2016).

Test system: IDE

B1: insulin-like peptide 3 (protein, UniProt P51460 21-55; P51460 106-131, looked up)
Insulin-like 3 B chain: LGPAPTPEMREKLCGHHFVRALVRVCGGPRWSTEA
Insulin-like 3 A chain: AAATNPARYCCLSGCTQQDLLTLCPY
modifications: Insulin-like 3
notes: IDE substrate in vitro
Question: For B1, which Km (IDE substrate) is on record?
Answer: Its Km is 0.055 µM.

Question: And the kcat (IDE substrate)?
Answer: The kcat was 0.0025 s⁻¹.

Question: And the Degradation (degradation kinetics compared to insulin)?
Answer: Its Degradation is “Fast”.
